The record followed here is patent US20120244166A1 (published 2012).

The target of one assay is Du156.12. The assay is described as follows: ELISA. Background: In an ELISA, binding on a coated surface is turned into a signal by an enzyme label.
For assay [1], the target named is gp41 MPER peptide (residues 657 to 669 of gp41 linked to a C-terminal C9 tag). The assay is described as follows: SPR. On the technique in general: Surface plasmon resonance follows binding to a sensor surface in real time, without labels.

Changes are numbered by the printed parent chain. Names may count otherwise.

B1: 2 (Heavy chain: G54S) (antibody, V domains shown)
VH: QVQLVQSGGQMKKPGESMRISCRASGYEFIDCTLNWIRLAPGKRPEWMGWLKPRGGAVNYARPLQGRVTMTRDVYSDTAFLELRSLTVDDTAVYFCTRGKNCDYNWDFEHWGRGTPVIVSS
VL: EIVLTQSPGTLSLSPGETAIISCRTSQYGSLAWYQQRPGQAPRLVIYSGSTRAAGIPDRFSGSRWGPDYNLTISNLESGDFGVYYCQQYEFFGQGTKVQVDI
The term EC50 denotes the midpoint of the concentration-response curve. Molecule B1 gave an EC50 in the assay with Du156.12 of 0.072 µg/mL.

B2: C32AC98S (antibody, V domains shown)
VH: B1 VH with C32S, C102A
VL: B1 VL
As to B2, the EC50 with Du156.12 came to 0.048 µg/mL.

B3: Insertion-AA (antibody, V domains shown)
VH: B1 VH
VL: EIVLTQSPGTLSLSPGETAIISCRTSQYGSAALAWYQQRPGQAPRLVIYSGSTRAAGIPDRFSGSRWGPDYNLTISNLESGDFGVYYCQQYEFFGQGTKVQVDI
B3 gave an EC50 with Du156.12 of 2.02 µg/mL.

B4: 2F5 L100AS-V100DS (antibody, V domains shown)
VH: RITLKESGPPLVKPTQTLTLTCSFSGFSLSDFGVGVGWIRQPPGKALEWLAIIYSDDDKRYSPSLNTRLTITKDTSKNQVVLVMTRVSPVDTATYFCAHRRGPTTSFGSPIARGPVNAMDVWGQGITVTISS
VL: ALQLTQSPSSLSASVGDRITITCRASQGVTSALAWYRQKPGSPPQLLIYDASSLESGVPSRFSGSGSGTEFTLTISTLRPEDFATYYCQQLHFYPHTFGGGTRVDVRR
For orientation: Kd means the concentration at which binding is half-saturated. B4: binding in assay [1] was put at a Kd of 36.7 nM.

B5: 2F5 (antibody, V domains shown)
VH: B4 VH with S106L, S109V
VL: B4 VL
Regarding B5, in assay [1], binding was characterised by a dissociation constant (Kd) of 9.5 nM.

B6: 2F5 L100AS (antibody, V domains shown)
VH: B4 VH with S109V
VL: B4 VL
The molecule B6 registered a Kd in assay [1] of 10.8 nM.

B7: 2F5 V100DW (antibody, V domains shown)
VH: B4 VH with S106L, S109W
VL: B4 VL
B7 yielded a Kd in assay [1] of 11.9 nM.

B8: 2F5 L100AW (antibody, V domains shown)
VH: B4 VH with S106W, S109V
VL: B4 VL
As to B8, in assay [1], the Kd worked out at 11.3 nM.

B9: 2F5 F100BS-I100FS (antibody, V domains shown)
VH: B4 VH with S106L, F107S, S109V, I111S
VL: B4 VL
In assay [1], B9 came in with a Kd of 46.9 nM.

B10: 2F5 V100DS (antibody, V domains shown)
VH: B4 VH with S106L
VL: B4 VL
B10: in assay [1], binding was characterised by a dissociation constant (Kd) of 14.3 nM.

B11: 2F5 L100AS-F100BS (antibody, V domains shown)
VH: B4 VH with F107S, S109V
VL: B4 VL
Molecule B11 gave a Kd in assay [1] of 10.9 nM.

B12: 2F5 L100AW-V100DW (antibody, V domains shown)
VH: B4 VH with S106W, S109W
VL: B4 VL
For B12, in assay [1], the equilibrium dissociation constant (Kd) was found to be 12.8 nM.

B13: 2F5 F100BW (antibody, V domains shown)
VH: B4 VH with S106L, F107W, S109V
VL: B4 VL
In assay [1], B13 registered a Kd of 11.2 nM.

B14: 2F5 F100BS (antibody, V domains shown)
VH: B4 VH with S106L, F107S, S109V
VL: B4 VL
Molecule B14 yielded a Kd in assay [1] of 11.9 nM.

B15: 2F5 I100FS (antibody, V domains shown)
VH: B4 VH with S106L, S109V, I111S
VL: B4 VL
B15 yielded a Kd in assay [1] of 27.3 nM.
